{
  "source": "patent US20170241986A1",
  "about": "“METHODS FOR IDENTIFYING COMPOUNDS THAT ALTER THE ACTIVITY OF IRHOM POLYPEPTIDES AND USE THEREOF” (The Jackson Laboratory, priority 2014, published 2017)",
  "molecules": {"B1": {"name": "HuWt: full-length wildtype human RHBDF2 cDNA (iRhom2) in a C-terminal Flag-tagged expression vector (protein)", "chain": "MASADKNGGSVSSVSSSRLQSRKPPNLSITIPPPEKETQAPGEQDSMLPEGFQNRRLKKSQPRTWAAHTTACPPSFLPKRKNPAYLKSVSLQEPRSRWQESSEKRPGFRRQASLSQSIRKGAAQWFGVSGDWEGQRQQWQRRSLHHCSMRYGRLKASCQRDLELPSQEAPSFQGTESPKPCKMPKIVDPLARGRAFRHPEEMDRPHAPHPPLTPGVLSLTSFTSVRSGYSHLPRRKRMSVAHMSLQAAAALLKGRSVLDATGQRCRVVKRSFAFPSFLEEDVVDGADTFDSSFFSKEEMSSMPDDVFESPPLSASYFRGIPHSASPVSPDGVQIPLKEYGRAPVPGPRRGKRIASKVKHFAFDRKKRHYGLGVVGNWLNRSYRRSISSTVQRQLESFDSHRPYFTYWLTFVHVIITLLVICTYGIAPVGFAQHVTTQLVLRNKGVYESVKYIQQENFWVGPSSIDLIHLGAKFSPCIRKDGQIEQLVLRERDLERDSGCCVQNDHSGCIQTQRKDCSETLATFVKWQDDTGPPMDKSDLGQKRTSGAVCHQDPRTCEEPASSGAHIWPDDITKWPICTEQARSNHTGFLHMDCEIKGRPCCIGTKGSCEITTREYCEFMHGYFHEEATLCSQVHCLDKVCGLLPFLNPEVPDQFYRLWLSLFLHAGVVHCLVSVVFQMTILRDLEKLAGWHRIAIIFILSGITGNLASAIFLPYRAEVGPAGSQFGLLACLFVELFQSWPLLERPWKAFLNLSAIVLFLFICGLLPWIDNIAHIFGFLSGLLLAFAFLPYITFGTSDKYRKRALILVSLLAFAGLFAALVLWLYIYPINWPWIEHLTCFPFTSRFCEKYELDQVLH", "modifications": "left off: small tags and cut ends", "notes": "full-length wildtype human RHBDF2 cDNA (iRhom2) in a C-terminal Flag-tagged expression vector"}},
  "key": {"AREG [1]": {"test_system": "AREG", "experiment": "Co-immunoprecipitation of iRhom2-AREG complex", "format": "binding, human", "conditions": "COS7 cell lysates, anti-Flag immunoprecipitation", "method": "Immunoprecipitation: 293T and COS7 cell transfections were carried according to the manufacturer's instructions (Life technologies). Cells plated in 6 well plates were treated with 400 μls of Cell Lysis Buffer (Cell Signaling, Danvers, Mass.) containing complete mini protease inhibitors (Roche Applied Science, Indianapolis, Ind.), incubated on ice for 10 min and centrifuged at 14,000 g for 10 min in a cold room. Cell supernatant was incubated overnight with 20 μls of magnetic beads conjugated with Anti-DDK antibody (Origene) in a cold room on a rocking platform. Following overnight incubation, beads/slurry was washed with three times with TBS-T, and protein was collected using 2×SDS-PAGE loading buffer."}, "AREG [2]": {"test_system": "AREG", "experiment": "ELISA of AREG in conditioned medium of transfected 293T cells (in vitro cleavage assay)", "format": "cell-based, human", "conditions": "293T cells, co-expression with AREG, absence of MM", "source_text": "To test whether Rhbdf2^cub, with its short N-terminal domain, could induce secretion of AREG independently of metalloprotease activity, we performed in vitro cleavage assays in the presence or absence of marimastat (MM), a potent broad-spectrum metalloprotease inhibitor that can block both ADAM17- and ADAM10-dependent shedding of substrates. Because of the significant homology between the mouse and human RHBDF2 genes we transfected 293T cells with human AREG either alone or with the human wildtype (HuWt) or human Cub (HuCub) RHBDF2 genes (FIG. 5A), and measured AREG levels in conditioned medium. In the absence of MM, we observed no difference in AREG levels between AREG-expressing and AREG/HuCub co-expressing cells, whereas co-expression of HuWt and AREG reduced AREG levels by ˜60% (FIG. 5B).\nHuman AREG, HB-EGF and EGF ELISA: Transient transfections were performed in 293T cells seeded in 24-well plates. Using lipofectamine LTX with Plus reagent 16.5 fmol of HuWt or HuCub was co-transfected with 25 ng of AREG or 50 ng of HB-EGF or 200 ng of EGF. The total amount of transfected DNA was made up to equal amount per well with pCMV6-AC-HA vector. After 24 h, DMSO or 10 μM MM in 1 ml of fresh medium replaced the old medium. After 24 h, 100 μl of supernatant was either undiluted (HB-EGF and EGF) or diluted five-fold (AREG) and subjected to ELISA as per the manufacturer's instructions (DY262, DY259, and DY236)."}, "iRhom2 [3]": {"test_system": "iRhom2", "experiment": "Cyclohexamide chase with flow cytometry of Flag-tagged iRhom2 protein in COS7 cells", "format": "cell-based", "conditions": "150 μg/ml cyclohexamide chase, within one hour", "method": "(§1) Flow cytometry—293T and COS7 cells plated in 6 well plates were transiently transfected with 600 ng of HuWt or HuCub or HuWt p.I186T cDNAs using Lipofectamine™ LTX reagent. After 40 h, cells were incubated in 150 μg/ml of cyclohexamide for 0, 0.5, 1, 2 and 4 h. Following that, cells were fixed in 150 μls of freshly prepared cold 4% PFA at RT for 40 min. Cells were washed once with 2 ml PBST and resuspended in 150 μls of PBST for 15 min at RT in the dark. After another wash, cells were resuspended in 125 μls of PBST containing phycoerythrin-labeled anti-DDK primary antibody (1:50) on ice for 30 min. After a final wash, cells were resuspended in FACS buffer and subjected to flow cytometry analysis (BD FACSCalibur).\nStatistical analysis—GraphPad Prism v4 (GraphPad Software, San Diego, Calif.) was used to generate Kaplan-Meier survival curves and calculate protein half-life (One phase exponential decay equation). One-way ANOVA and t-tests determined statistical differences. P value less than 0.05 was considered statistically significant."}, "iRhom2 [4]": {"test_system": "iRhom2", "experiment": "Flow cytometry of protein expression of Flag-tagged constructs in 293T and COS7 cells", "format": "cell-based, human", "conditions": "48 h post transfection", "method": "as §1, with “After 40 h, cells were incubated in 150 μg/ml of cyclohexamide for 0, 0.5, 1, 2 and 4 h.” left out"}},
  "data": [
    {"molecule": "B1", "values": [
      {"measurement": "physical complex with AREG", "setting": "AREG [1]", "result": "forms physical complexes with AREG"},
      {"measurement": "reduction of AREG levels in conditioned medium", "setting": "AREG [2]", "result": "~60", "unit": "%"},
      {"measurement": "reduction in immunoreactivity compared with HuCub or p.I186T", "setting": "iRhom2 [3]", "result": "approximately 50%"},
      {"measurement": "protein expression level compared to HuCub and p.I186T", "setting": "iRhom2 [4]", "result": "significantly lower"}
    ]}
  ]
}
